In publication PMC3210322 (Nature structural & molecular biology, 2011):
Changes are numbered by the printed parent chain. Names and notes keep the numbering of the source.

Target: Rpt2-L437C (S. cerevisiae, UniProt P40327 1-437, L437C)
Experiment: cross-linking

Sequence of Rpt2-L437C (P40327 whole entry L437C): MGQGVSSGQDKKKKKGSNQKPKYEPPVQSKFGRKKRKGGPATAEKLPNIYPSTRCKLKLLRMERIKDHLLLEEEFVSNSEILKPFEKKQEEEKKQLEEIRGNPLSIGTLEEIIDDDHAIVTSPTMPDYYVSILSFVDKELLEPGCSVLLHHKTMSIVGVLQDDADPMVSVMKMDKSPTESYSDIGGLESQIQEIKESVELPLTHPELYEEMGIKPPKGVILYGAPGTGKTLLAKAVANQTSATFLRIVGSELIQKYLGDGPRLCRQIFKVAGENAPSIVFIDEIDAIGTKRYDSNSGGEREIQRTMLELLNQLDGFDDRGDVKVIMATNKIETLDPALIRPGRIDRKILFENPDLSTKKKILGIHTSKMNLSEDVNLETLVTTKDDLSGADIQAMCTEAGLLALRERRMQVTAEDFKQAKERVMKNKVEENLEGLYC

B1: α4-N79C, not HA-tagged (natural protein)
chain: MSGYDRALSIFSPDGHIFQVEYALEAVKRGTCAVGVKGKNCVVLGCERRSTLKLQDTRITPSKVSKIDSHVVLSFSGLCADSRILIEKARVEAQSHRLTLEDPVTVEYLTRYVAGVQQRYTQSGGVRPFGVSTLIAGFDPRDDEPKLYQTEPSGIYSSWSAQTIGRNSKTVREFLEKNYDRKEPPATVEECVKLTVRSLLEVVQTGAKNIEITVVKPDSDIVALSSEEINQYVTQIEQEKQEQQEQDKKKKSNH
- binding result: binds

B2: α4-C32A C46A N79C (natural protein)
chain: B1 chain with C32A, C46A
- binding result: binds
